Consider two molecules from publication doi:10.1101/2022.08.26.505501 (bioRxiv, 2022).

T1: co-expressed Kae1-Pcc1 subcomplex (2Kae1:2Pcc1) (Saccharolobus islandicus REY15A, UniProt F0NFC9 1-331; F0NF65 1-91)
T1 sequence (looked up) 1: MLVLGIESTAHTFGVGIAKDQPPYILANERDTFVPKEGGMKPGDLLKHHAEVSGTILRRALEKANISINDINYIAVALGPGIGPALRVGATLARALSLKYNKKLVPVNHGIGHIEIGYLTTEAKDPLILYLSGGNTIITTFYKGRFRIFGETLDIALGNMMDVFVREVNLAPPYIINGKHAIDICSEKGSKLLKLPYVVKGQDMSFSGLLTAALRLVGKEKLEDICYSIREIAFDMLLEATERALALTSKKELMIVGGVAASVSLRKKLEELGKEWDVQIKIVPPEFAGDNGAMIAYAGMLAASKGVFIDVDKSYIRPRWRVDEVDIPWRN
T1 sequence (looked up) 2: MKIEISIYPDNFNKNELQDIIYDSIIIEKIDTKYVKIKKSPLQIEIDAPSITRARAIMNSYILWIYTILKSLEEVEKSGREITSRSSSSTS

T2: His-Pcc1 co-expressed with no-tagged SisKae1 (Saccharolobus islandicus REY15A, UniProt F0NF65 1-91)
T2 sequence (looked up): T1 sequence (looked up) 2

B1: His-SisPcc1-like (natural protein, Saccharolobus islandicus REY15A, UniProt F0NIH8 1-81, looked up)
chain: MIELRILSEHEDAELIIRSLNVDNVNLPEGMSIQTKVEGKELEIVIKMRITKPNDLMTVRNTADEILAHIKALQSSFDAIS
B2: no-tagged SisKae1 (enzyme, Saccharolobus islandicus REY15A, UniProt F0NFC9 1-331, looked up)
chain: T1 sequence (looked up) 1

What all share (experiment): SEC
Test [1] has as its target Flag-tagged SisKae1 co-expressed with His-tagged SisPcc1-like (Saccharolobus islandicus REY15A).
Test [2] addresses T1, co-expressed Kae1-Pcc1 subcomplex ….
The test “no-tagged SisKae1” deals with B2.
Test [3] deals with T2, His-Pcc1 co-expressed with no-tagged ….

In the case of B1, the stoichiometry N (Pcc1-like per Kae1) in test [1] turned out to be 2. The “stoichiometry N” value in test [2] is 1 Kae1:Pcc1:Pcc1-like (1:1:1); in the test with no-tagged SisKae1, 1 Kae1:Pcc1-like (1:1).

Turning to B2, in test [3], the “stoichiometry N” value is 1 Kae1:Pcc1 (2:2).
